# Measurements as given in PMC6770530, “Tumor Uptake of Triazine Dendrimers Decorated with Four, Sixteen, and Sixty-Four PSMA-Targeted Ligands: Passive versus Active Tumor Targeting” (Biomolecules, 2019).
# Like-named read-outs stand apart in the source and are kept apart here.
# How the values were obtained:
# [1] = target: T1, PSMA (Homo sapiens, UniProt Q04609); design: method as in PMID 15027864, PMID 25822623; details: cited from earlier work
# T1 construct: expressed in transfected cells; host or cells: PC3-PIP cells (PSMA positive)
# T1 sequence (Q04609 whole entry): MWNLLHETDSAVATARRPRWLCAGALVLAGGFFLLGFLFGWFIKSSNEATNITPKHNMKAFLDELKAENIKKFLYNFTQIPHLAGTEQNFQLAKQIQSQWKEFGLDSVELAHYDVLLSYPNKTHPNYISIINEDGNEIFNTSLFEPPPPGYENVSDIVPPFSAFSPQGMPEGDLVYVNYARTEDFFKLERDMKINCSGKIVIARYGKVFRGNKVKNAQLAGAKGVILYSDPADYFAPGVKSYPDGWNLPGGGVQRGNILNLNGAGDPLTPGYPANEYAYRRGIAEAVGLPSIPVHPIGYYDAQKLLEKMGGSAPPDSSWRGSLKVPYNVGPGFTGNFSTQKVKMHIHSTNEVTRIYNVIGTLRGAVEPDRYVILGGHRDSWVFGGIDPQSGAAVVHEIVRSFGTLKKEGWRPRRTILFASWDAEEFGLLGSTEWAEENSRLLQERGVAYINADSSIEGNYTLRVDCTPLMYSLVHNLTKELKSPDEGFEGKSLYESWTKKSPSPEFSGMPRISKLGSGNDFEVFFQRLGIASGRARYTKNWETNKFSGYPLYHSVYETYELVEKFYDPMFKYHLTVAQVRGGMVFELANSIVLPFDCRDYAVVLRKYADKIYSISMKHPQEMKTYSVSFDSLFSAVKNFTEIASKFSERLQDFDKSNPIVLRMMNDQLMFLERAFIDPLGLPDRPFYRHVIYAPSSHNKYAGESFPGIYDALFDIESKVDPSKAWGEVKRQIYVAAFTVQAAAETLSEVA
# [2] = target: T1, PSMA; assay: Competitive cell-binding assay with 125I-labeled PSMA radioligand in PC3-PIP cells; details: read-out: IC50 (displacing 50% of the 125I-labeled PSMA radioligand bound to PC3-PIP cells), room temperature 2 h, n = 4
# Protocol: A reported PSMA ^125I-radioligand [21] was used as a PSMA-specific radioligand in the assay. PC3-PIP cells were suspended in Tris-buffered saline (TBS) and seeded on multiwell DV plates (Millipore) with 5 × 10^4 cells per well. […] The unbound ^125I-radioligand was removed by filtration. The wells were rinsed five times with cold TBS buffer. The filters were then collected and their radioactivity was measured on a 2480 automatic gamma counter (PerkinElmer).
# [3] = system: PC3-PIP (PSMA positive) and PC3-FLU (PSMA negative) cells; assay: Cell uptake of 64Cu-labeled dendrimers in PC3-PIP and PC3-FLU cells; format: cell-based; details: 64Cu-labeled dendrimer, 1 h at 37 °C, n = 3
# Protocol: Cell uptake experiments were conducted in the PSMA positive PC3-PIP cell lines and the PSMA negative PC-FLU cell lines. The cells (5.0 × 10^5) were seeded to a 6-well plate and incubated at 37 °C overnight in a humidified incubator with 5% CO2. After being rinsed with binding buffer (20 mM Tris, 150 mM NaCl, pH 7.4), the cells in binding buffer (500 µL) were incubated at 37 °C with ~6.0 × 10^5 CPM of ^64Cu-labeled dendrimers for 1 h, washed with cold binding buffer, and then trypsinized. The radioactivity of trypsinized cells was counted on a 2480 automatic gamma counter (PerkinElmer).
# [4] = system: PC3-PIP cells; assay: Internalization of 64Cu-labeled dendrimers in PC3-PIP cells; format: cell-based; details: 64Cu-labeled dendrimer, incubation 1-120 min
# Protocol: The PC3-PIP cells were used for the internalization study. The 12-well plates containing ~2.0 × 10^5 cells were incubated overnight in a humidified incubator at 37 °C with 5% CO2 and then washed with binding buffer (20 mM Tris, 150 mM NaCl, pH 7.4). Each solution of ^64Cu-labeled dendrimers (~6.0 × 10^5 CPM) in 0.4 mL of binding buffer was incubated with the cells for 1, 10, 30, 60, and 120 min, respectively, and then washed once with ice-cold binding buffer. The surface bound ^64Cu-labeled dendrimers were removed by incubating cells twice for 5 min with 0.5 mL of ice-cold low pH stripping buffer (150 mM NaCl, 50 mM glycine, pH 3.0) and collected in a culture tube. After incubation with 0.5 mL of 4 M NaOH at 37 °C for 15 min, the NaOH-solubilized cells were collected in separate culture tubes. The radioactivity of surface bound/internalized ^64Cu-labeled dendrimers was counted on a 2480 automatic gamma counter (PerkinElmer).
# [5] = Serum stability assay of 64Cu-labeled dendrimers; format: in vitro ADME, rat
# Protocol: The stability of ^64Cu-labeled dendrimers was evaluated in rat serum. […] An aliquot of sample (10 µL) was mixed with 5 mM EDTA (100-fold molar excess) and incubated at 37 °C for 10 min. The resulting solution was analyzed by a Rita Star Radioisotope TLC Analyzer.
# [6] = mouse, in vivo, iv, 64Cu-labeled dendrimer; for tissue uptake at 1 h: 1 h p.i.; for tissue uptake at 4 h: 4 h p.i.
# [7] = system: SCID mice bearing PC3-PIP and PC3-FLU xenografts; details: 64Cu-labeled dendrimer, i.v., 4 h p.i.
# [8] = design: method as in PMID 23398590; details: estimated by dynamic light scattering of unfunctionalized analogues; cited from earlier work
# [9] = In vivo organ uptake, Left Kidney
# [10] = In vivo organ uptake, Right Kidney
# [11] = In vivo tumor uptake, PC3-FLU, PSMA negative xenograft right shoulder
# [12] = In vivo tumor uptake, PC3-PIP, PSMA positive xenograft left shoulder
smiles,measurement,setting,value
"O=C(O)CCC(NC(=O)NC(CCC(=O)O)C(=O)O)C(=O)O (stereo not shown) [DUPA, 2-[3-(1,3-dicarboxypropyl)-ureido] pentanedioic acid]",IC50,[1],47 nM
same,Ki,[1],8 nM
NCC1CCN(c2nc(NCCCOCCOCCOCCCNC(=O)CCCCCCCNC(=O)CC[C@H](NC(=O)N[C@@H](CCC(=O)O)C(=O)O)C(=O)O)nc(N3CCN(c4nc(NCCCOCCOCCOCCCNc5nc(NCCCOCCOCCOCCCNC(=O)CCC(C(=O)O)N6CCN(CC(=O)O)CCN(CC(=O)O)CCN(CC(=O)O)CC6)nc(NCCCOCCOCCOCCCNc6nc(N7CCN(c8nc(NCCCOCCOCCOCCCNC(=O)CCCCCCCNC(=O)CC[C@H](NC(=O)N[C@@H](CCC(=O)O)C(=O)O)C(=O)O)nc(N9CCC(CN)CC9)n8)CC7)nc(N7CCN(c8nc(NCCCOCCOCCOCCCNC(=O)CCCCCCCNC(=O)CC[C@H](NC(=O)N[C@@H](CCC(=O)O)C(=O)O)C(=O)O)nc(N9CCC(CN)CC9)n8)CC7)n6)n5)nc(N5CCN(c6nc(NCCCOCCOCCOCCCNC(=O)CCCCCCCNC(=O)CC[C@H](NC(=O)N[C@@H](CCC(=O)O)C(=O)O)C(=O)O)nc(N7CCC(CN)CC7)n6)CC5)n4)CC3)n2)CC1 (stereo partly shown) [G1-(DUPA)4],IC50,[2],282 nM
same,PC3-PIP to PC3-FLU cell uptake ratio,[3],10
same,highest (maximum) internalization,[4],49%
same,serum stability,[5],stable in rat serum and remained intact over 24 h
same,tissue uptake at 1 h,"[6]; In vivo organ uptake, Bone",0.08 ± 0.03 %ID/g
same,tissue uptake at 4 h,"[6]; In vivo organ uptake, Bone",0.07 ± 0.01 %ID/g
same,tissue uptake at 24 h,"[6]; In vivo organ uptake, Bone, 24 h p.i.",0.08 ± 0.02 %ID/g
same,tissue uptake at 1 h,"[6]; In vivo organ uptake, Brain",0.03 ± 0.01 %ID/g
same,tissue uptake at 4 h,"[6]; In vivo organ uptake, Brain",0.02 %ID/g
same,tissue uptake at 24 h,"[6]; In vivo organ uptake, Brain, 24 h p.i.",0.07 %ID/g
same,tissue uptake at 1 h,"[6]; In vivo organ uptake, Heart",0.16 ± 0.05 %ID/g
same,tissue uptake at 4 h,"[6]; In vivo organ uptake, Heart",0.1 ± 0.02 %ID/g
same,tissue uptake at 24 h,"[6]; In vivo organ uptake, Heart, 24 h p.i.",0.25 ± 0.05 %ID/g
same,tissue uptake at 1 h,[6]; [9],53.3 ± 4.37 %ID/g
same,tissue uptake at 4 h,[6]; [9],58.7 ± 4.98 %ID/g
same,tissue uptake at 24 h,"[6]; In vivo organ uptake, Left Kidney, 24 h p.i.",54 ± 5.96 %ID/g
same,tissue uptake at 1 h,"[6]; In vivo organ uptake, Liver",1.03 ± 0.16 %ID/g
same,tissue uptake at 4 h,"[6]; In vivo organ uptake, Liver",1.2 ± 0.2 %ID/g
same,tissue uptake at 24 h,"[6]; In vivo organ uptake, Liver, 24 h p.i.",1.93 ± 0.15 %ID/g
same,tissue uptake at 1 h,"[6]; In vivo organ uptake, Muscle",0.06 ± 0.03 %ID/g
same,tissue uptake at 4 h,"[6]; In vivo organ uptake, Muscle",0.05 ± 0.01 %ID/g
same,tissue uptake at 24 h,"[6]; In vivo organ uptake, Muscle, 24 h p.i.",0.13 ± 0.03 %ID/g
same,tissue uptake at 1 h,[6]; [10],56.8 ± 5.14 %ID/g
same,tissue uptake at 4 h,[6]; [10],60 ± 3.27 %ID/g
same,tissue uptake at 24 h,"[6]; In vivo organ uptake, Right Kidney, 24 h p.i.",55 ± 7.36 %ID/g
same,tissue uptake at 1 h,[6]; [11],0.18 ± 0.05 %ID/g
same,tissue uptake at 4 h,[6]; [11],0.13 ± 0.02 %ID/g
same,tissue uptake at 24 h,"[6]; In vivo tumor uptake, PC3-FLU, PSMA negative xenograft right shoulder, 24 h p.i.",0.33 ± 0.06 %ID/g
same,tissue uptake at 1 h,[6]; [12],0.99 ± 0.36 %ID/g
same,tissue uptake at 4 h,[6]; [12],0.87 ± 0.4 %ID/g
same,tissue uptake at 24 h,"[6]; In vivo tumor uptake, PC3-PIP, PSMA positive xenograft left shoulder, 24 h p.i.",0.81 ± 0.36 %ID/g
same,tissue uptake at 24 h,"[6]; level of kidney uptake, over 24 h p.i.",45 to 55 %ID/g
same,PC3-PIP to PC3-FLU uptake ratio (in vivo),[7],6.7 ± 3.0
same,PC3-PIP to muscle uptake ratio,[7],17.7 ± 5.5
same,dimensions,[8],approximately 2 nm
